Where two headings read alike, the source gives them in different places.

Experimental findings from paper PMC8799719 (2022) are described below.

Assay [1] addresses T1, triple-helical peptide (THP) [(POG)10]3 (synthetic construct, O of each POG triplet, as printed in (POG)10). The experiment in a line: ITC. For orientation: ITC needs no label: the signal is the heat of the interaction.
In assay [2] the target is T1, triple-helical peptide (THP) [(POG)10]3. The experiment in a line: ITC. This is another data set of the same source.

B1: recombinant activator domain of VhaC (domain or fragment)
chain: SAEQAANVCDVEAFTSNSSNDVLNAIKTQGASCVNALFSAESRIQEAAFESGHMYNIAKHTTDLAKAYAGGGSDELEALFLYLRAGYYAEFYNSKVSFLSWVTPAVKEAVDAFVNNANFYENSDPHGKVLSEVIITMDSAGLQHAYLPQVTQWLTRWDSQYAQNWYMRNAVNGVFTILFGGQWNEQFVQTIGNQTELAKALGDFALRSSAIGASDEFMAANAGRELGRLTKYSGSASSTVKSKLTEIFAQYEMYGRGDAIWLGAADTVSYYADCSDY
Turning to B1, the Kd (as a rule, the equilibrium constant for the complex coming apart) in assay [1] amounted to 82.8 µM.

B2: ColG-activator domain (domain or fragment)
chain: YDFEYLNGLSYTELTNLIKNIKWNQINGLFNYSTGSQKFFGDKNRVQAIINALQESGRTYTANDMKGIETFTEVLRAGFYLGYYNDGLSYLNDRNFQDKCIPAMIAIQKNPNFKLGTAVQDEVITSLGKLIGNASANAEVVNNCVPVLKQFRENLNQYAPDYVKGTAVNELIKGIEFDFSGAAYEKDVKTMPWYGKIDPFINELKALGLYGNITSATEWASDVGIYYLSKFGLYSTNRNDIVQSLEKAVDMYKYGKIAFVAMERITWDYD
For B2, binding in assay [2] was characterised by a dissociation constant (Kd) of 3.28 µM. This lies in the single-digit micromolar range.
